{"source": "paper doi:10.1101/2021.02.25.432905", "about": "(bioRxiv, 2021)", "binders": {"B1": {"name": "350-145 (antibody, V domains shown)", "VH": "EVQLVESGGGLVQPGGSLRLSCSASGFTFSSYSMNWVRQAPGKGLEWLSYISSSSGSKYYADSVKGRFTISRDNAKNLVYLQMSSLRADDAAMYYCARSDYAVFYYGMDVWGQGTTVTVSS", "VL": "EIVMTQSPATLSVSPGERATLSCRASQSVSSNLAWYQQKPGQAPRLLIYGASTRATGIPARFSGSGSGTEFTLTISSLQSEDFAVYYCQQYYNWPPLTFGGGTKVEIK"}}, "molecular_target": "A/California/7/2009 HA (recombinant HA, rHA) (Influenza A virus A/California/07/2009 …, UniProt C3W5X2)"}
{"binder": "B1", "values": [{"measurement": "binding result", "result": "binds"}]}
